Experiment in all cases: EMSA
Holding throughout (conditions): EMSA: 10 mM Tris-HCl pH 7.5, 1 mM EDTA, 100 mM KCl, 0.1 mM DTT, 5% glycerol, 0.01 mg/mL BSA, 20 nM RNA, room temperature, 1 h; pull-down: RNA folded in 100 mM …

The test system of data set [1] is recombinant NCL (Homo sapiens).
Data set [2] relates to RGG peptide (Homo sapiens).
The subject of data set [3] is NCL* (PRMT1-methylated recombinant NCL) (Homo sapiens).
Data set [4] has as its system RGG* methylated peptide (Homo sapiens).

By Kd is commonly meant the free concentration of one partner at which half of the binding sites on the other are occupied at equilibrium, for simple one-to-one binding. Regarding EBNA1, the Kd was 306 nM in data set [1], 0.154 nM in data set [2], 202 nM in data set [3] and 0.107 nM in data set [4].

The values are drawn from paper PMC9723642.
